Measurements: patent US20250179196A1 (Janssen / Centocor, published 2025)

T1: Recombinant human IL-23 receptor (IL-23R) extracellular domain (ECD) protein (human, UniProt Q5VWK5 24-355)
T1 construct: also called human IL-23R ECD; hu IL-23R ECD
T1 sequence: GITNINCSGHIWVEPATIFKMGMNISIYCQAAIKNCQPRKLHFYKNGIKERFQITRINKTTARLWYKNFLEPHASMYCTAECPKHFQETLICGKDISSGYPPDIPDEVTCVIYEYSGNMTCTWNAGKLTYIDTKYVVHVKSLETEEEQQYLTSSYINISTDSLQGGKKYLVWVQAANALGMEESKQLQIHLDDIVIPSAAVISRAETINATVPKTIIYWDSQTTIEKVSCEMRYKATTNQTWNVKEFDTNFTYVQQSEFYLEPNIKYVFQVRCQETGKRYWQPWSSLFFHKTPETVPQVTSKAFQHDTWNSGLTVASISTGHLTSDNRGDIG

T2: rat IL-23R extracellular domain (ECD) protein (rat)
T2 construct: also called rat IL-23R ECD; F1LX96 amino acids 24-354
T2 chain: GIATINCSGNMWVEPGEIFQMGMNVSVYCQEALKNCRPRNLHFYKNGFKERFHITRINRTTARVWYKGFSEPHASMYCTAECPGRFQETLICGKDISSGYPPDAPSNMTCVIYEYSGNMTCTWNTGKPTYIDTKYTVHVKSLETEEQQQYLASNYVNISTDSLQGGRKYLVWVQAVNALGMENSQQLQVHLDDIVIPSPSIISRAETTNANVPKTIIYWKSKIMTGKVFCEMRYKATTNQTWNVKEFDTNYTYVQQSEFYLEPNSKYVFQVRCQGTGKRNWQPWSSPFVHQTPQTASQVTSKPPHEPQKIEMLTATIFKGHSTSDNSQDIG


Legend:
[1] = target: T1, Recombinant human IL-23 receptor …; experiment: SPR Biacore 8K, purified, analysis 1
Procedure: (§1) Affinity by SPR using Biacore 8K. Affinity measurements using Surface Plasmon Resonance (SPR) were performed using a Biacore 8K system (Cytiva). […] Approximately 9000-10000 RU (response units) of mAbs were immobilized. The kinetic experiments were performed at 25° C. in running buffer 1× of (HBS-P+ Buffer 10× (Cytiva #BR100671)+100 μg/ml BSA). To perform kinetic experiments, approximately 150 RU of mAbs were captured followed by injections of human IL-23R or rat IL-23R at concentrations ranging from 0.8 nM to 500 nM (in a 5-fold serial dilution). The association phase was monitored for 3 minutes at 50 μL/min, then followed by 30 minutes of buffer flow (dissociation phase). […] The collected data were processed using Biacore insight Evaluation software (Version 3.0.12.15655). The kinetic analysis of the data was performed using a Langmuir 1:1 binding model. The result for each mAb was reported in the format of Ka (On-rate), Kd (Off-rate) and KD (equilibrium dissociation constant).

[2] = target: T2, rat IL-23R extracellular domain (ECD) …; experiment: SPR Biacore 8K, purified
Procedure: as §1

[3] = target: T1, Recombinant human IL-23 receptor …; experiment: SPR Biacore 8K, supernatant, analysis 2
Outline: (§2)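 Kinetics fitted to a 1:1 Langmuir model gave on-rate, off-rate and KD. Human or rat IL-23R ECD flowed over captured mAbs (~150 RU) at 0.8–500 nM, 5-fold dilutions: 3 min binding at 50 μL/min, then 30 min buffer, 25 °C, HBS-P+ plus 100 μg/ml BSA.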

[4] = target: T1, Recombinant human IL-23 receptor …; experiment: SPR ProteOn, purified
Procedure: Affinity by SPR using ProteOn. Affinity measurements using Surface Plasmon Resonance (SPR) were performed using a ProteOn XPR36 system (BioRad). […] Approximately 6000 RU (response units) of mAbs were immobilized. The kinetic experiments were performed at 25° C. in running buffer (DPBS+0.01% P20+100 μg/ml BSA). […] The association phase was monitored for 3 minutes at 50 μL/min, then followed by 10 minutes of buffer flow (dissociation phase). The chip surface was regenerated with two 18 second pulses of 100 mM H3PO4 (Sigma, Cat #7961) at 100 μL/min. The collected data were processed using ProteOn Manager software. First, the data was corrected for background using inter-spots. Then, double reference subtraction of the data was performed by using the buffer injection for analyte injections. The kinetic analysis of the data was performed using a Langmuir 1:1 binding model. The result for each mAb was reported in the format of Ka (On-rate), Kd (Off-rate) and KD (equilibrium dissociation constant).

[5] = target: T2, rat IL-23R extracellular domain (ECD) …; experiment: SPR Biacore 8K, supernatant
Outline: as §2

[6] = target: T1, Recombinant human IL-23 receptor …; experiment: SPR Biacore 8K, purified, analysis 2
Procedure: as §1

[7] = target: T1, Recombinant human IL-23 receptor …; experiment: SPR Biacore 8K, supernatant, analysis 1
Outline: as §2

Binder | Kd [1] | koff [1] | kon [1] | binding result [2] | Kd [3] | koff [3] | kon [3] | Kd [4] | koff [4] | kon [4] | binding result [5] | binding result [4] | Kd [6] | koff [6] | kon [6] | Kd [7] | koff [7] | kon [7]
I23RB1 (antibody, mouse IgG2a, kappa, V domains shown, phage display; human V regions, mouse IgG2a/kappa constant regions) VH: QVQLVQSGAEVKKPGSSVKVSCKASGGTFKNYAISWVRQAPGQGLEWMGWIRPIFGTAYYAQKFQGRVTITADESTSTAYMELSSLRSEDTAVYYCARDSGSRYAGRYAFDYWGQGTLVTVSS VL: EIVLTQSPATLSLSPGERATLSCRASQSVSSYLAWYQQKPGQAPRLLIYDASNRATGIPARFSGSGSGTDFTLTISSLEPEDFAVYYCQQRSNWPLTFGQGTKVEIKR | 2.8 nM | 0.00111 s⁻¹ | 399000 M⁻¹ s⁻¹ | no binding (tested: 500 nM) | 2.62 nM | 0.000982 s⁻¹ | 376000 M⁻¹ s⁻¹ | 0.667 nM | 0.00229 s⁻¹ | 3.45e+06 M⁻¹ s⁻¹ | – | – | – | – | – | – | – | –
I23RB4 (antibody, mouse IgG2a, kappa, V domains shown, phage display; human V regions, mouse IgG2a/kappa constant regions) VH: QVQLVQSGAEVKKPGSSVKVSCKASGGTFKTYAIHWVRQAPGQGLEWMGWIIPIFGTANYAQKFQGRVTITADESTSTAYMELSSLRSEDTAVYYCARDGGYYGSRYYPRSYYFDYWGQGTLVTVSS VL: EIVLTQSPATLSLSPGERATLSCRASQSVSSYLAWYQQKPGQAPRLLIYDASNRATGIPARFSGSGSGTDFTLTISSLEPEDFAVYYCQQRSNWPLTFGQGTKVEIKR | 0.588 nM | 0.000135 s⁻¹ | 230000 M⁻¹ s⁻¹ | – | 0.477 nM | 0.000121 s⁻¹ | 254000 M⁻¹ s⁻¹ | 0.151 nM | 0.000235 s⁻¹ | 1.56e+06 M⁻¹ s⁻¹ | no binding (tested: 500 nM) | – | – | – | – | – | – | –
I23RB9 (antibody, mouse IgG2a, kappa, V domains shown, phage display; human V regions, mouse IgG2a/kappa constant regions) VH: QVQLVQSGAEVKKPGSSVKVSCKASGGTFSSYAISWVRQAPGQGLEWMGGIIPIFGTANYAQKFQGRVTITADESTSTAYMELSSLRSEDTAVYYCARDRSYSYGLSGLGYYGFDYWGQGTLVTVSS VL: EIVLTQSPATLSLSPGERATLSCRASQSVSSYLAWYQQKPGQAPRLLIYDASNRATGIPARFSGSGSGTDFTLTISSLEPEDFAVYYCQQRSNWPLTFGQGTKVEIKR | – | – | – | – | – | – | – | – | – | – | – | no binding | – | – | – | – | – | –
I23RB3 (antibody, mouse IgG2a, kappa, V domains shown, phage display; human V regions, mouse IgG2a/kappa constant regions) VH: QVQLVQSGAEVKKPGSSVKVSCKASGGTFKSYSIHWVRQAPGQGLEWMGGIIPYFGYANYAQKFQGRVTITADESTSTAYMELSSLRSEDTAVYYCARERGYYGSIYYGGGFDYWGQGTLVTVSS VL: EIVLTQSPATLSLSPGERATLSCRASQSVSSYLAWYQQKPGQAPRLLIYDASNRATGIPARFSGSGSGTDFTLTISSLEPEDFAVYYCQQRSNWPLTFGQGTKVEIKR | 4.76 nM | 0.000255 s⁻¹ | 53600 M⁻¹ s⁻¹ | – | 3.99 nM | 0.000233 s⁻¹ | 58300 M⁻¹ s⁻¹ | 1.92 nM | 0.000335 s⁻¹ | 174000 M⁻¹ s⁻¹ | no binding (tested: 500 nM) | – | – | – | – | – | – | –
I23RB2 (antibody, mouse IgG2a, kappa, V domains shown, phage display; human V regions, mouse IgG2a/kappa constant regions) VH: QVQLVQSGAEVKKPGSSVKVSCKASGGTFSSYAISWVRQAPGQGLEWMGGIIPIFGTANYAQKFQGRVTITADESTSTAYMELSSLRSEDTAVYYCARDRYRYLGANGFDYWGQGTLVTVSS VL: EIVLTQSPATLSLSPGERATLSCRASQSVSSYLAWYQQKPGQAPRLLIYDASNRATGIPARFSGSGSGTDFTLTISSLEPEDFAVYYCQQRSNWPLTFGQGTKVEIKR | – | – | – | – | – | – | – | > 4000 nM | – | – | – | – | – | – | – | – | – | –
I23RB47 (antibody, mouse IgG2a, kappa, V domains shown, mouse immunization; mouse IgG2a/kappa) VH: QVQLKESGPGLVAPSQSLSITCTVSGFSLTNYDIHWVRQSPGKGLEWLGVIWSDGRTDYKGAFISRLSISKDNSKSQVFFKMNSLQADDTAIYYCARNNYYRYGRNTMDYWGQGTSVTVSS VL: DIVLTQSPASQSASLGESVTITCLASQTIGSWLAWYQQKPGKSPQLLIYAATRLADGVPSRFSGSGSGTKFSFKISSLQAEDFVFYYCHQLYSIPLTFGGGTKLEMKR | – | – | – | no binding (tested: 500 nM) | 0.119 nM | 5.32e-05 s⁻¹ | 445000 M⁻¹ s⁻¹ | – | – | – | – | – | 0.114 nM | 5.17e-05 s⁻¹ | 453000 M⁻¹ s⁻¹ | < 0.051 nM | < 2.89e-05 s⁻¹ | 566000 M⁻¹ s⁻¹
I23RB35 (antibody, mouse IgG2a, kappa, V domains shown, mouse immunization; mouse IgG2a/kappa) VH: DVQLQESGPGLVKPSQSLSLTCSVTGYSITSGHNWNWIRQFPGNKLEWLGYISYDGSNNYDPSLKNRISITRDTSKNQFFLKLNSVTTEDTATYYCARGGGYFGNSYRVFASWGQGTTVTVSS VL: DIVLTQSPASLAVSLGQRATISCRASESVDSYGNSFMHWYQQKPGQPPKLLIYRASNLESEIPARFSGRGSGTDFTLTINPVEADDVATYYCQQSNADPYTFGGGTKLEIKR | < 0.0527 nM | < 2.89e-05 s⁻¹ | 549000 M⁻¹ s⁻¹ | no binding (tested: 500 nM) | < 0.0777 nM | < 2.89e-05 s⁻¹ | 372000 M⁻¹ s⁻¹ | – | – | – | – | – | < 0.0687 nM | < 2.89e-05 s⁻¹ | 421000 M⁻¹ s⁻¹ | – | – | –
I23RB32 (antibody, mouse IgG2a, kappa, V domains shown, mouse immunization; mouse IgG2a/kappa) VH: EFQLQQSGPELVKPGASVKLSCKASGYTFTDYALHWVKQSPGQGLEWIGWIYPGGGNTYYNDKFKGKATMTADKSSSTAYMQLSSLTSEDSAVYFCARGRLRRDYPMDYWGQGTSVTVSS VL: DIVMTQSPSSLTVTAGEKVTMSCKSSQSLLNSGNQKNYLTWYQQKPGQPPKLLIYWASTRESGVPDRFTGSGSGTDFTLTISSVQAEDLAVYYCQNDYTYPLTFGSGTKLEIKR | 0.332 nM | 0.000182 s⁻¹ | 550000 M⁻¹ s⁻¹ | no binding (tested: 500 nM) | – | – | – | – | – | – | – | – | 0.34 nM | 0.000172 s⁻¹ | 506000 M⁻¹ s⁻¹ | – | – | –
I23RB33 (antibody, mouse IgG2a, kappa, V domains shown, mouse immunization; mouse IgG2a/kappa) VH: EVQLQQSGAELVKPGASVKLSCTASGFNIRDIYIHWVKQRPEQGLEWIGRIDPANGHSIYAAKFQGKATITADTSLNIAYMQLSSLTSGDTAVYYCARGSDNDYGRVLAYWGLGTSVTVSS VL: DIVLTQSPAIMSASPGEKVTMTCRASSSVRSSYLHWYQQKSGASPKLWIYSTSNLASGVPARFSGSGSGTSYSLTITSVEAEDAATYYCQQYTGNPIFTFGSGTKLELKR | 0.162 nM | 0.000155 s⁻¹ | 957000 M⁻¹ s⁻¹ | no binding (tested: 500 nM) | 0.218 nM | 0.000146 s⁻¹ | 672000 M⁻¹ s⁻¹ | – | – | – | – | – | 0.216 nM | 0.000149 s⁻¹ | 691000 M⁻¹ s⁻¹ | – | – | –
I23RB101 (antibody, mouse IgG2a, kappa, V domains shown, mouse immunization; mouse IgG2a/kappa) VH: EVQLQQSGAEVKKPGSSVKVSCKASGGTFSSYAISWVRQAPGQGLEWMGWINPNSGGTNYAQKFQGRVTMTRDTSISTAYMELSRLRSDDTAVYYCARGYRYGPLDGFDIWGQGTTLTVSS VL: DIVMTQSHKFMSTSIGDRVSITCKTSQDVRTAVAWYQQKPGQSPKLLIYSASYRYIGVPDRFTGSGSGTDFTFTISDVQAEDLALYYCQQHYSTPYTFGGGTKLEIKR | – | – | – | no binding (tested: 500 nM) | – | – | – | – | – | – | – | – | – | – | – | – | – | –
I23RB6 (antibody, mouse IgG2a, kappa, V domains shown, phage display; human V regions, mouse IgG2a/kappa constant regions) VH: QVQLVQSGAEVKKPGSSVKVSCKASGGTFSSYAISWVRQAPGQGLEWMGGIIPIFGTANYAQKFQGRVTITADESTSTAYMELSSLRSEDTAVYYCARGRYIRSYDYFDYWGQGTLVTVSS VL: not shown | – | – | – | – | – | – | – | – | – | – | – | no binding | – | – | – | – | – | –
